Laboratory results as given in the RNAGym collection of RNA variant scans (doi:10.1073/pnas.2313332121).
Fewer inactive variants are shown than the library holds.

B1: TPR 5TU (parent)
chain: GGAUCUUCUCGAUCUAACAAAAAAGACAAAUCUGCCACAAAGCUUGAGAGCAUCUUCGGAUGCAGAGGCGGCAGCCUUCGGUGGCGCGAUAGCGCCAACGUUCUCAACUAUGACACGCAAAACGCGUGCUCCGUUGAAUGGAGUUUAUCAUG

Variants of: B1
Assay: polymerase ribozyme fitness, log enrichment relative to wild type (log ratio); higher = more active; in vitro selection for triplet polymerase activity
Method in brief: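 Fitness compares each genotype's enrichment to that of the wild type on a logarithmic scale, averaging replicates with inverse-variance weights. The logarithm is base 2. Enrichment came from Illumina sequencing of input and output libraries after one triplicate round of in vitro selection, which included frozen incubation at −7 °C, of PCR-built, transcribed mutant libraries of each subunit of a heterodimeric triplet polymerase ribozyme. Only genotypes with ≥10 input reads and ≥1 read per output were kept.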

Row | Variant | polymerase ribozyme fitness (log ratio)
1 | GGAUCUUCUCAAUCUAACAAAAAAGACAAAUCUGCCACAAAGCUUGAGAGCAUCUUCGGGUGCAGAGGCGGCAGCCUUCGGUGGCGCGAUAGCGCCAACGUUCUCGACUAUGACACGCAAAACGCGUGCUCCGUUGAAUGGAGUUUAUCAUG [G11A A60G A106G] | -0.626
2 | GGAUCUUCUCAAUCUAACAAAAAAGACAAAUCUGCCACAAAGCUUGAGAGCAUUAUCGGAUGCAGAGGCGGCAACCUUCGGUGGCGCGGUACCGCCAACGUUCUGAACUAUAACACGCAAAACGCGUGCUCCGUUGAAUGGAGGUUAUCAUG [G11A C54U U55A G74A A89G G92C C105G G112A U144G] | ≤ -4.2
3 | GGAUCUUCUCAAUCUAACAAAAAAGACUAAUUUGCCACAAAGCUUGUGAGCAUCUUCGGAUGCAGAGGCGGCAGCCUUAGGUGGCGCGAUAGCGCCAACGUUCUCAACUAUGACACGCAAAACGCGUGCUCCGUUGAAUGGAGUUUAUCAUG [G11A A28U C32U A47U C79A] | ≤ -4.2
4 | GGAUCUUCUCAAUUUAACAAAAAAGACAAAUCGGCCACAAAGCAUGAGAGCAUCUUCGGAUGCAGAGGAGGCAGCCUUAGGUGGUGCGAUAGCGCCUACGUUCUCAACUAUGACACGCAAAACGCGUGCUCCGUUGAAUGGAGUUUAUCAUG [G11A C14U U33G U44A C69A C79A C85U A97U] | ≤ -4.2
5 | GGAUCUUCUCAAUCUAACAAAAAAGACAAAUUUGCCACAAAGCUUGAGAGCAUCUUCGGAUGCAGAGGCGACAGCCUUCGGUGGCGCGAUAGCGCCAACGUUCUCAACUAUGACACGCAAAACGCGUGCUCCGUUGGGUGGAGUUUAUCAUG [G11A C32U G71A A137G A138G] | ≤ -4.2
6 | GGAUCUUCUCAAUCUAACAAAAAAGACAAAUCUGUCACAAAGCUUGAGAGUAUCUUCGGAGGUCGAGGCGGCAGCCUUCGGUGGGGCGAGAGCGCCAACGUUCUCAACUAUGACACGCAAAACGCGUGCUCCGUUGAAUAGAGUUUAUCAUG [G11A C35U C51U U61G C63U A64C C85G U90G G140A] | ≤ -4.2
7 | GGAUCUUCUCAAUCUAACAAAAAAGACAUAUCUGCCACAAAGCUUGAGAGCAUCUUCGGAUGCAGAGGCGGCAGCCUUCGGGGGCGAGAUAGCCCUAGCGUUCUCAACUAUGACACGCAAACCGCGUGCUCCGUUGAAUGAAGUUUAUCAUG [G11A A29U U82G C87A G94C C96U A98G A122C G141A] | ≤ -4.2
8 | GGAUCUUCUCAAUCUAACAAAAAAGAAAAAUCUGCCCCAAAGCUUGAGAGCAUCUUCGCAUGCAGAGGCGGCAGCCUUCGGUAGCACGAUAACGCCAACGUGCUCAACUAUGACACUCAAAACGCGUGCUCCGUUGAAUGGAGUUUAUCAUG [G11A C27A A37C G59C G83A G86A G92A U102G G117U] | ≤ -4.2
9 | GGAUCUUCUCAAUCUAACAAAAAAGACAAAUCUGCCACAAAGCUUGAGAGCAUCUUCGGAUGCAGAGGUGGCAGCCUUCGGUGGCGUGAUACCGCCAACGUUCUCAACUAUGACACGCAAAACGCGUGCUCCGUUGAAUGGAGUUUAUCGUG [G11A C69U C87U G92C A150G] | -2.89
10 | GGAUCUUCUCAAUCUAACAAAAAAGACAAAUCUGCCACAAAGCUUGAGAGCAUCUUCGGAUGCAGAGGCGGCAGCCUUCGGUGGCGCGAUGGCGCCAACGUUCUCAACUAUGACACGCAAAACGCGUGCUCCGUUGAAUGGAGUUUAUCAUG [G11A A91G] | -3.81
11 | GGAUCUUCUCAAUCUAACAAAAAAGACAAAUCUGCCACAAAGCUUGAGAGCGAAUUCGGAUGCAGAGGCGGCAGCCUUCGGUGUCGCGAUAGCGCCAACGUUCUCAACUAUGACACGCAAAACGCGUUCUCUGUUGAAUGGAGUUUAUCAUG [G11A A52G U53A C54A G84U G128U C132U] | -4.13
12 | GGAUCUUCUCAAUCUAACAAAAAAGACAAAUCUGCCCCAAAGCUUGAGAGCAUCUGCGGAUGCAGAGGCGGCAGCCUUCGGUAGCGCGAUAGCGCCAACGUUCUCAACUAUGACACGCAAAACGCGUGCUCCGUUGAAUGGAGUGUAUCAUG [G11A A37C U56G G83A U145G] | -3.73
13 | GGAUCUUCUCAAUGUAACAAAAAAGACAAAUCUGCCACAAAGCUUGAGAGCAUCUUCGGAUGCAGUGGCGGCAGCCUUCGGUGGCGAGAUAGCGCCAACGUUCUCUACUAUGACACGCAAAACGCGUGCUCCGUUGAAUGGACUUUAUCAUG [G11A C14G A66U C87A A106U G143C] | ≤ -4.2
14 | GGAUCUUCUCAAUCUAACAAAAAAGACAAAUCUGCCACAAAGCUUGAGAGCAUCUUAGGAUGCAGAGGCGGCAGCCUUCGGUGGCGCGAUAGCGCCAACGUUCUCAACUAUGACACGCAAAACGCGUGCUCCGUUGAAUGGAGUUUAUCAUG [G11A C57A] | -1.44
15 | GGAUCUUCUCAAUCUAACAAAAAAGCCAAAUCUGCCACAAAGCUUGAGAGCAUCUUCGGAUGCAGAGGCGGCAGCCUUCGGUGGCGCGAGAGCGCCAACGUUCUCAACUAUGACACGCAAAACGCGUGCUCCGUUGAAUGGAGUUUAUCAUG [G11A A26C U90G] | ≤ -4.2
16 | GGAUCUUCUCAAUCUAACAAAAAAGACAAAUCUGCCACAAAGGUUGAGAGCAUCUUCGGAUGCAGAGGCGGCAGCCUUCGGUGGCGCGACAGCACCAACGUUCUCAACUAUGACACGCAAAACGCGUGCUCCGUUGAAUGGAGUUUAUCAUG [G11A C43G U90C G94A] | -4.13
17 | GGAUCUUCUCAAUCUAACAAAAAAGCCAAAUCUGCCACAAAGCUUGAGAGCAUCUUCGGAUGCAGAGUCGGCAGUCUUCGGUGGCGCGAUAGCGCCAACGUUCUCAACUAUGACACGCAAAACGCGUGCUCCGUUGAAUGGAGUUUCUCAUG [G11A A26C G68U C75U A147C] | ≤ -4.2
18 | GGAUCUUCUCAAUCUAACAAAAAAGACAAAUCUGCCACAAAGCUUGAGAGCAUCUUCGGAUGCGGAGGCGGCAGCCUUCGGUGGCGCUAUAGCGCCAACGGUGUCAACUAUGACACGCAAAACGCGUGCUCCGUUGAAUGGAGUUGAUCAUG [G11A A64G G88U U101G C103G U146G] | ≤ -4.2
19 | GGAUCUUCUCAAUCUAACAAAAAAGACAAAUCUGCCACAAAGCUUGAGAGCAUUUUCGGAUGCAGAGGCGGCAGCCUUCGGUAGCGCGAUAGCGCCAACGUUCUCAACUAUGACACGCAAAACGCGUGCUCCGUUGAAUGGAGUUUUUCAUG [G11A C54U G83A A147U] | -0.578
